# Measurements: the RNAGym collection of RNA variant scans (doi:10.1073/pnas.2313332121)
# This sample holds only a part of the variants without activity.
# B1: TPR 5TU (parent)
# chain: GGAUCUUCUCGAUCUAACAAAAAAGACAAAUCUGCCACAAAGCUUGAGAGCAUCUUCGGAUGCAGAGGCGGCAGCCUUCGGUGGCGCGAUAGCGCCAACGUUCUCAACUAUGACACGCAAAACGCGUGCUCCGUUGAAUGGAGUUUAUCAUG
# Variants of: B1
# Experiment: polymerase ribozyme fitness, log enrichment relative to wild type (log ratio); higher = more active; in vitro selection for triplet polymerase activity
# Procedure, shortened: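 A single round of triplicate in vitro selection, including frozen incubation at −7 °C, was applied to PCR-built, transcribed mutant libraries of each subunit of a heterodimeric triplet polymerase ribozyme. Illumina sequencing of input and output libraries retained genotypes with ≥10 input reads and ≥1 read per output. Fitness is the base-2 logarithm of genotype enrichment divided by wild-type enrichment, from inverse-variance-weighted replicate averages.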
row,Variant,polymerase ribozyme fitness (log ratio)
1,A29G A73U A91G C99U A115U A137U,≤ -4.2
2,A24U G83U G136A U146C A150G,-3.59
3,A24C G81U C87G U104G A110U,≤ -4.2
4,U55A U56A A97U,-0.565
5,C76U C116G,0.541
6,A21U A26G G86U C118U,≤ -4.2
7,C57A G128C,-2.62
8,C36A C51U G68A C85G A97U,≤ -4.2
9,C8U C57U,-3.18
10,C14U G59U,-1.23
11,C32U U44A G50U U78C G83U A120G,≤ -4.2
12,C8U A24U U55G C69U G74U C87A A138U,≤ -4.2
13,C27U C35U A49U C51G U53A G86U U151G,≤ -4.2
14,G58A G71U,-0.673
15,A20U A28U A64C C79U C93A C114U,≤ -4.2
16,A49G G59U A97U G143A,-3.58
17,A37U A52C C116G,-2.94
18,A26U G59C C103G A106C C132U,≤ -4.2
19,C18U A52G G83C U146G,-2.39
20,C75U G141C,-1.98
21,C10G A20C A40U A64G G70U C87U,≤ -4.2

row,Variant,polymerase ribozyme fitness (log ratio)
1,A60G A89C U104G C108G,≤ -4.2
2,G83U A121U,-0.341
3,G50U C72A A89C G92A C129A A137G A150U,≤ -4.2
4,G46A A97U U109G A121G U135C,≤ -4.2
5,A40C G126A G128U,-4.14
6,A52C U61A G65A C95A G141U,-2.36
7,C99G U146G,-1.32
8,A20C G48U G59A A119U U135A U146C,-2.07
9,A21C C72G G124C,≤ -4.2
10,C85A C118U,-0.342
11,A22U C54A,-0.932
12,A28U G48C C54U G74U U77A G86U A98U C103G,≤ -4.2
13,U45A G46C C85G G88C C93U A115C A150G,≤ -4.2
14,U56A C99G G140U,-3.99
15,C10U G80C G84U C87A C105A U151G,≤ -4.2
16,U82A C93U U145G,-2.53
17,A3U U45A C96A,-3.51
18,A21U G83C C95U,-1.58
19,A41U G50A A52C C93U G100A A119C,≤ -4.2
20,A30C C87G C99G C132A G140U,≤ -4.2
21,U7A C27A U31G A66U U146G A150U,≤ -4.2

row,Variant,polymerase ribozyme fitness (log ratio)
1,U9G A21U C35U U55A C108U C118U G128A G133A,≤ -4.2
2,A23U C38U C114U G126A,≤ -4.2
3,G50A C57U C76U C125U A142C U144G A150G,-3.98
4,G11U A39U C57U G70A U101G,≤ -4.2
5,U7C,-1.19
6,A52G G71C C95A C131A U139A,≤ -4.2
7,C96U U102G U144A A150U,≤ -4.2
8,U4C A19U G50C C76U U144G,≤ -4.2
9,C99U U145G,-2.09
10,G59A A60C U61A G81A C103G,≤ -4.2
11,A28C U45A G88A C96A G100A G143A,≤ -4.2
12,U6G G11A,-0.786
13,C18A A21C A37C G81A C87G,≤ -4.2
14,A47U A97C,0.501
15,A49G U53C A98U A121G,-1.87
16,C38U C51U C76A C79A A97U G100A C103G A106G A120G,≤ -4.2
17,A49C G62A C87A G140C,≤ -4.2
18,U9G U33A C36A C63U C79G C118A U135A,≤ -4.2
19,U56G G136A,0.0437
20,A89U A97U U101A A107C A121C G140U U148G,≤ -4.2
21,A49U G58C C75G C118G G124A,≤ -4.2

row,Variant,polymerase ribozyme fitness (log ratio)
1,C8G U82G G84U C85U A107C,≤ -4.2
2,C38U C95A C103U G143A,-3.18
3,C35U C116U A120G,-0.528
4,A47U C54A C75G G140A,≤ -4.2
5,A16C A20G C27U A60G G117A,-3.38
6,U134A,-2.25
7,U6A C14G G34A C87U C105U U145G,-4.05
8,A30G A41U C69G C76U G94U U102G U130C,≤ -4.2
9,A17G A22G U56A,0.0483
10,A22G C35U C93G A142C A150G,≤ -4.2
11,A49U U55A A106G,-0.994
12,U6C A16U A17G C85U A89G,≤ -4.2
13,C51U G140U,-2.55
14,A26U A89C C95U U104A A107G,≤ -4.2
15,U15A A29U G59U C95U A120G U127G U135C G143A,≤ -4.2
16,C32U U55A,-1.62
17,A20C G50U G83U,-0.904
18,G50C A98G,-3.37
19,C103A A150G,-4.09
20,U45G C114U A119U,-2.4
21,U56A C96U U101C U139G,-0.437
